Results published in PMC6566107, “Molecular Analysis of Protein-Protein Interactions in the Ethylene Pathway in the Different Ethylene Receptor Subfamilies” (Frontiers in Plant Science, 2019).

Key:
[1] = biological target: T1, Arabidopsis thaliana ethylene receptor ETR2 (AtETR2), full-length, type-II subfamily (Arabidopsis thaliana, UniProt Q0WPQ2 1-773, Alexa Fluor 488 succinimidyl-ester label where used as the labeled partner in MST); test: MST; 40 nM Alexa Fluor 488-labeled receptor (AtETR1 or AtETR2); unlabeled AtETR1 or AtETR2 (4 µM to 0.49 nM) or ETR1-TM C4SC6S (16 µM to 0.98 nM) titrated; 0.0075% (w/v) FosCholine-16; 60% MST power; 1:1 model; settings: both partners purified
T1 construct: ETR2, Arabidopsis thaliana, UniProt Q0WPQ2, full-length, codon optimized cDNA according to NCBI NM_113216.3; The thrombin site of pGEX-4T-1 was changed to a TEV site (ENLYFQG); No cleavage is described; The purified protein runs at an apparent 120 kDa, so GST is probably still attached; The same construct was used with and without the Alexa Fluor 488 label; source: E. coli C43 (DE3), solubilised …
T1 sequence (looked up): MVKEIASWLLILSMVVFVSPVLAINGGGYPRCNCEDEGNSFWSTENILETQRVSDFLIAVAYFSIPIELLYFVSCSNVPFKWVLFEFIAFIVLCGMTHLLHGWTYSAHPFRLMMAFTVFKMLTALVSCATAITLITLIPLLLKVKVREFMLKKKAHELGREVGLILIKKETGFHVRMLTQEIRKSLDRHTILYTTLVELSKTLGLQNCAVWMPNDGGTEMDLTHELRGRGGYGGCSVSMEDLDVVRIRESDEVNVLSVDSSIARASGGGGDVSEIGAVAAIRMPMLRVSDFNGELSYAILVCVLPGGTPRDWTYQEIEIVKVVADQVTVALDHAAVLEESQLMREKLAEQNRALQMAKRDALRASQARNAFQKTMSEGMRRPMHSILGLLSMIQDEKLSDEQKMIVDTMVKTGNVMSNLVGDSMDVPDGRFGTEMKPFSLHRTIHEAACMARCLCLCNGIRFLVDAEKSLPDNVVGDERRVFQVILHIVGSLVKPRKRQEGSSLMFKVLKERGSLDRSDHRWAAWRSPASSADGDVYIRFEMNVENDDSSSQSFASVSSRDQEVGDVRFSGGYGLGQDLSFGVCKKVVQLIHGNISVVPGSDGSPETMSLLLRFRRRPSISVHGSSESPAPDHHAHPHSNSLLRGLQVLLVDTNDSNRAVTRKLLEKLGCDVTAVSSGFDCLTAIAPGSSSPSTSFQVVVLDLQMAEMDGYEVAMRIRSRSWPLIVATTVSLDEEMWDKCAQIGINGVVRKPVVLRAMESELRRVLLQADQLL

[2] = biological target: T2, Arabidopsis thaliana ethylene receptor ETR1 (AtETR1), full-length, type-I subfamily (Arabidopsis thaliana, UniProt P49333 1-738, Alexa Fluor 488 succinimidyl-ester label where used as the labeled partner in MST); test: as above; settings: both partners purified
T2 construct: ETR1, Arabidopsis thaliana, full-length receptor; source: recombinant, expressed and purified as described in Milić et al., 2018, in FosCholine-16
T2 sequence (looked up): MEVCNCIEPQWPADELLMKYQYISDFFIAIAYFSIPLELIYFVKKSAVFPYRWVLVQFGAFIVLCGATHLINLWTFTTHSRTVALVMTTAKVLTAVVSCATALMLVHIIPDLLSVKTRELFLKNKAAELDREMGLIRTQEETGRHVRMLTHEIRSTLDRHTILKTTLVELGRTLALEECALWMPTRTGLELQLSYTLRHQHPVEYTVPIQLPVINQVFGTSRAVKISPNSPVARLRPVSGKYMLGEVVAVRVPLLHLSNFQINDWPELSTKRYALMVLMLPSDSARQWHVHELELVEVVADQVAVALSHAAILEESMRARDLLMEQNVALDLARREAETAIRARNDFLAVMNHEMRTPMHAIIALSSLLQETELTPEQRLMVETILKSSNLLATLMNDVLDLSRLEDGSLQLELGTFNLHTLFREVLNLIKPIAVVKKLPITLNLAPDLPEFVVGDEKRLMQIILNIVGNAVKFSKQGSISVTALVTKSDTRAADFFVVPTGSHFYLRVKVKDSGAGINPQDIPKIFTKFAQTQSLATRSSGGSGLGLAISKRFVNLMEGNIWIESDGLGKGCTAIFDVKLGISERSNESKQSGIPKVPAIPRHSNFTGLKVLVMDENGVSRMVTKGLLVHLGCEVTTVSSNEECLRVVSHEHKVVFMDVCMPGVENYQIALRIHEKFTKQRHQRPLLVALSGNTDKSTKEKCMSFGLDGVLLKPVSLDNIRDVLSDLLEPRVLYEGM

binding result [1]: binds
binding result [2]: binds
B1: Isolated transmembrane domain of AtETR1 (aa 1-157) with C4S and C6S (domain or fragment, Arabidopsis thaliana, UniProt P49333 1-157, looked up)
chain: MEVSNSIEPQWPADELLMKYQYISDFFIAIAYFSIPLELIYFVKKSAVFPYRWVLVQFGAFIVLCGATHLINLWTFTTHSRTVALVMTTAKVLTAVVSCATALMLVHIIPDLLSVKTRELFLKNKAAELDREMGLIRTQEETGRHVRMLTHEIRSTL
notes: ETR1, Arabidopsis thaliana, transmembrane domain, residues 1-157, cysteines 4 and 6 changed to serine; also called ETR1-TM^C4SC6S; AtETR1-TM^C4SC6S
